Assay results: patent publication US20040022780A1, “Serine protease and topical retinoid compositions useful for treatment of acne vulgarise and production of anti-aging effects” (priority 1997, published 2004)

What was measured:
[1] = test system: Rhino mouse skin; assay: Transepidermal water loss (TEWL), evaporimeter on dorsal skin; assay type: in vivo; details: for TEWL: topical once daily for five days
From the text: Rhino mice of Example 1 were topically treated with the trypsin compositions (0.001% (w/v)-1% (w/v)) of Example 2 once daily for five days. Animals were sacrificed at day 8 and image analysis was used to quantify the reduction in utriculi size. For image analysis, whole mount epidermis was processed and microscopic measurements were taken according to the methods described in Mezick as well as Bernerd et al., “The Rhino Mouse Model: The Effects of Topically Applied All-Trans Retinoic Acid and CD271 on the Fine Structure of the Epidermis and Urticuli Wall of Pseudocomedones,” 283(2) Arch. Dermatol. Res. 100-107 (1991) and Bouclier et al., “Quantification of Epidermal Histological Changes Induced by Topical Retinoids and CD271 in the Rhino Mouse Model Using a Standardizing Image Analysis Technique,” 4(2) Skin Pharmacol. 65-73 (1991) which are each incorporated herein by reference in their entirety. Empire Imagins Database version 1.1 was used on a Gateway 2000 P5-100 computer for capturing images. Image Pro Plus version 1.3 was used for measurements and Microsoft Excel version 5.0 for data processing. The mean utriculus diameter (μ) and the mean sebaceous gland size (μ^2) were calculated for each treatment group (3 Rhino mice), using 5 random fields, two measurements per field, per animal. Percent reduction in utriculi diameter was calculated in accordance with the methods described in Finley, D. J., “Parallel Line Assays, Statistical Method in Biological Assay,” Charles Griffen & Company Ltd. 69-104 (1978) which is incorporated herein by reference in its entirety.
To further characterize the effect of trypsin on the Rhino mouse skin, we measured the transepidermal water loss (“TEWL”) using an “Evaporimeter EPI” evaporimeter available from Servomed AB by first normalizing the evaporimeter with the ambient humidity and then placing the probe on the dorsal skin of the test subject at which point a reading of TEWL was taken.

[2] = test system: Rhino mouse skin; assay: Delivery of fluorescently labeled trypsin into hair follicles (fluorescent microscopy); assay type: in vivo
Protocol: About 100 μL of the topically active trypsin composition of Example 2 was applied to the dorsal side of each Rhino mouse of Example 1. The trypsin used in this composition was fluorescently-labeled with a protein fluorescent labeling kit available from Molecular Probes, Inc. in accordance with its accompanying protocol (1996). At one and four hours after the application of the fluorescent trypsin treatment, a 1 cm by 2 cm sample of the skin surface of each mouse was isolated from each mouse with scissors, fixed with a 10% buffered formalin solution having a pH of about 6.9-7.1 at 25° C. available from Stephens Scientific, then formed into a paraffin block according to well-known procedures, and examined with fluorescent microscopy according to well-known methods.
This Example was repeated on similar Rhino mice of Example 1, with the exception that these mice were treated daily for 5 days with the 1% (w/v) trypsin composition of Example 2 prior to the fluorescent trypsin treatment. Four hours after the application of the fluorescent trypsin treatment on the fifth day, the skins of these mice were analyzed using similar fluorescent microscopic methods. […] This loss of barrier integrity is reflected in the values for transepidermal water loss (“TEWL”) as described in Example 4 and Table 1 herein.

[3] = test system: Rhino mouse skin; assay: H&E histology of trypsin treated Rhino mouse skin; assay type: in vivo; details: 0.1% (w/v) trypsin in GDL liposomes daily for five days
[4] = test system: Transglutaminase mRNA; assay: RT-PCR gene expression in skin, transglutaminase; assay type: in vivo, Rhino mouse; details: increasing concentrations of trypsin (0.0001-0.01% (w/v)) daily for five days
Protocol: (§1) Rhino mice of Example 1 were treated daily with trypsin compositions (0% (w/v), 0.0001% (w/v), 0.001% (w/v), and 0.01% (w/v)), as prepared in Example 2, for five days and sacrificed at day eight. The skins of vehicle treated mice and trypsin-treated mice were obtained as described in Example 3, then their total RNAs were extracted using “RNA Stat-60” reagent available from Tel-Test “B,” Inc. as described in Chomczymski, “Single Step Method of RNA Isolation By Acid Guanidinium Thiocyanate-phenol-chloroform extraction,” 162 Anal. Biochem. 156-59 (1987) which is incorporated herein by reference in its entirety. A sufficient amount of RNase-free DNase available from Promega, Corp. under the tradename “RQ1 RNase-free DNase” was then added to the extracted RNA from each mouse such that each respective product contained 200 ng of DNased-RNA using the procedure set forth in “RNase-free DNase” protocol published by Promega, Corp. (May, 1995). […]
(§2) The PCR products were then analyzed on 2% agarose/ethidium bromide gels according to methods well-known in the art in order to compare the level of expression of certain genes in skins of trypsin-treated and untreated mice. […]

[5] = test system: involucrin; assay: RT-PCR gene expression in skin, involucrin; assay type: in vivo, Rhino mouse; details: trypsin (0.0001-0.01% (w/v)) daily for five days, dose dependent
Protocol: as §1, §2

Transglutaminase mRNA level [4]: reduced to below detection level
B1: trypsin (protein, UniProt P00760 24-246, looked up)
Serine protease 1: IVGGYTCGANTVPYQVSLNSGYHFCGGSLINSQWVVSAAHCYKSGIQVRLGEDNINVVEGNEQFISASKSIVHPSYNSNTLNNDIMLIKLKSAASLNSRVASISLPTSCASAGTQCLISGWGNTKSSGTSYPDVLKCLKAPILSDSSCKSAYPGQITSNMFCAGYLEGGKDSCQGDSGGPVVCSGKLQGIVSWGSGCAQKNKPGVYTKVCNYVSWIKQTIASN
notes: lyophilyzed trypsin from Sigma-Aldrich, a serine protease, in Hepes buffer mixed with GDL liposomes
TEWL ([1]; Trypsin 0.001% (w/v)): 29.53 ± 3.68 g/m^2h | TEWL ([1]; Trypsin 0.005% (w/v)): 26.40 ± 1.77 g/m^2h | TEWL ([1]; Trypsin 0.01% (w/v)): 28.53 ± 2.18 g/m^2h | TEWL ([1]; Trypsin 0.05% (w/v)): 36.57 ± 2.07 g/m^2h | TEWL ([1]; Trypsin 0.1% (w/v)): 42.80 ± 4.33 g/m^2h | TEWL ([1]; Trypsin 0.5% (w/v)): 36.23 ± 1.24 g/m^2h | TEWL ([1]; Trypsin 1.0% (w/v)): 42.00 ± 1.14 g/m^2h | trypsin concentration at which TEWL increase reached a plateau ([1]; once daily for five days): ~0.05 % (w/v) | TEWL compared with retinoid treatment given alone ([1]; trypsin treated mice): lower than that for retinoid treatment given alone | location of fluorescent labeling in skin ([2]; 1 hour and 4 hours after topical application of about 100 μL fluorescent trypsin composition): almost all of the fluorescent labeling was found within the utriculi and sebaceous glands | change in delivery route into utriculi and sebaceous glands ([2]; 4 hours after fluorescent trypsin, following 5 days of daily 1% (w/v) trypsin): no major change | barrier integrity (staining at outer portion of stratum corneum) ([2]; following 5 days of daily 1% (w/v) trypsin): some loss of barrier integrity | inflammatory cells in skin histology [3]: no inflammatory cells | epidermis histology (H&E) ([3]; vs untreated): hyperplastic with an increase in the number of cell layers | level of involucrin [5]: increased
